Consider 1 molecule from patent EP0956864A1, “TISSUE FIBROSIS INHIBITOR” (KYOWA HAKKO KOGYO CO., LTD., priority 1996, dated 1998).

One data set deals with Rat2 cells. Kind of data set: Cell growth inhibiting activity in rat fibroblast cell line Rat2 (MTT method). The conditions noted are these: 1.5 µg/ml; compared with LP6 to LP10. The class given is cell-based. The procedure: The assay of growth inhibiting activity using the rat fetal fibroblast as above mentioned has an insufficient sensitivity and needs complicated operations; therefore, a higher sensitive assay of the growth inhibiting activity using rat fibroblasts, Rat2 cells, was established. This assay will be described hereinbelow.
Rat fibroblast cell line Rat2 (ATCC CRL-1764) was cultured in Eagle MEM medium containing 10% bovine serum (Science, 130, 432 (1959)) in the presence of 5% carbon dioxide at 37°C.
The number of Rat2 cells can be measured by any method which can be used for quantitative determination of cell growth. […] Procedures for quantitatively determining the number of cells by the MTT method and assaying the cell growth inhibiting activity of a sample will be described herein. […]
Thereafter, PBS containing 1 to 10 mg/ml, preferably 5 mg/ml, of MTT reagent is added at 1 to 100 µl/well, preferably 10 µl/well, and further incubated for 1 to 8 hours, preferably 4 hours. […] The absorbance of the dissolved formazan dye at 540 nm is measured to thereby quantitatively determine the number of cells. […]
The number of Rat2 cells may be measured by any method which can be used to determine cell growth in a quantitative manner. The number of cells was quantitatively determined by the MTT method herein to measure the cell growth inhibiting activity in the liver perfusates LP6 to LP10. […]
On the technique in general: Formazan colour is commonly taken as a measure of viable cells.

Data set [1] is described as follows: Arginase activity assay (Garganta and Bond). The class given is biochemical. As to conditions: purified preparation. The procedure: The elution of protein was monitored by measuring absorbance at 280 nm. Effluents were collected by a fraction collector and each fraction was estimated according to the method of measuring arginase activity as reported by Garganta and Bond: Analytical Biochemistry, 154, 388 (1986).
The SP-Sepharose human arginase fraction contained 1360 mg of proteins and the purity of human arginase was 90% or higher. […] The amount of proteins herein means the value calculated as bovine serum albumin using BIO-RAD protein assay kit.

A short description of data set [2]: Arginine concentration in blood (plasma) after administration to rats. The conditions noted are these: 0.5 ml of 200 µg/ml per rat into penis veniplex; 1, 3, 6, 24 hours and 1 to 14 days. The class given is in vivo, SD rats. The procedure: 2. Kinetics of PEG modified rat arginase in rat blood
Male SD rats (body weight of 220 to 240 G) were purchased from Nippon SLC and tested after about 1 week breeding. […] After inhalation anesthesia with diethyl ether, each sample was administered to penis veniplex at a dose of 0.5 ml per rat by means of a disposable plastic syringe (Terumo).
To determine the change with the passage of time, the blood was taken from the same individual at 1, 3, 6 and 24 hours or 1, 3, 7, 10 and 14 days. The animals were bled from the tail veins at 0.3 ml per animal by a method that causes a minimum effect on the animals. Each rat was fixed in a retaining trap (Natsume Seisakusho) so that it could move only the tail freely, and a disposable injection needle (Terumo, 23x1" ) was cut at the part connecting to the syringe and inserted into the tail vein. The vein blood dripped from the cut end was received in a sample tube (Eppendorph, volume of 1.5 ml) containing 10 µl of 5% EDTA.2K solution as an anticoagulant. After slightly shaking to confirm the absence of coagulation, the blood was centrifuged at 3,000 rpm for 10 minutes to yield plasma. The plasma sample was freezed and stored at -80°C until analysis. Prior to use, the sample was thawed and centrifuged at 3,000 rpm for 10 minutes to remove insoluble matters. […]

B1: PEG modified rat arginase: recombinant rat arginase modified with methoxy polyethylene glycol propionic acid N-hydroxysuccinimide ester, average molecular weight about 5,000 (conjugate, UniProt P07824 1-323, looked up)
Arginase-1: MSSKPKPIEIIGAPFSKGQPRGGVEKGPAALRKAGLVEKLKETEYNVRDHGDLAFVDVPNDSPFQIVKNPRSVGKANEQLAAVVAETQKNGTISVVLGGDHSMAIGSISGHARVHPDLCVIWVDAHTDINTPLTTSSGNLHGQPVAFLLKELKGKFPDVPGFSWVTPCISAKDIVYIGLRDVDPGEHYIIKTLGIKYFSMTEVDKLGIGKVMEETFSYLLGRKKRPIHLSFDVDGLDPVFTPATGTPVVGGLSYREGLYITEEIYKTGLLSGLDIMEVNPTLGKTPEEVTRTVNTAVALTLSCFGTKREGNHKPETDYLKPPK
modifications: methoxy PEG 5000 conjugated
For B1, the “rat fibroblast Rat-2 growth inhibiting activity” value in the data set on Rat2 cells is on record as “identical with that obtained when 1.25% LP6 to LP10 were added”. In addition, the arginase activity in data set [1] is 2358 U/ml. Moreover, the “arginine concentration in blood” value in data set [2] is “Sustained inhibiting effects”.
